From PMC9756111, “Stabilization of DNA fork junctions by Smc5/6 complexes revealed by single-molecule imaging” come the findings set out here.

Data set [1] addresses Smc5/6 holocomplex (budding yeast) (UniProt Q12749). Description: single-molecule dual-colour Qdot co-detection (TIRF, DNA curtains); as a1, but buffer exchanged to 250 mM NaCl: Smc5/6 diffusing freely on double-tethered dsDNA (after equilibration on DNA); cluster size by statistical inference, assuming no unlabelled complexes (lower limit).
For data set [2] the target is unchanged. Nature of the data set: single-molecule dual-colour Qdot co-detection (TIRF, DNA curtains); Smc5/6 labelled with equal amounts of Qdot605 and Qdot705 anti-HA on the same epitope in 50 mM NaCl-Buffer R; puncta counted as they first appear on double-tethered dsDNA curtains (oligomers in solution), and binding at sites of previously bound Smc5/6; cluster size by statistical inference, assuming no unlabelled complexes (lower limit).

For data set [3], the target named is T1, Smc5/6 holocomplex (Saccharomyces cerevisiae (W303 …, UniProt Q08204;Q12749;Q07913;P38632;Q05541;P43124;Q03718;P40026 …)). Nature of the data set: single-molecule capture on DNA curtain (TIRF); Smc5/6 preloaded on lambda dsDNA; 16 nM oligo; 1 mM ATP; mean about 4.0 oligos per punctum; Buffer R (composition not in material); dsDNA binding in 25 mM NaCl + 25 mM KCl, capture in 50 mM NaCl + 1 mM ATP; other steps 50-250 mM NaCl; pH and temperature not given in material. Particulars: protein: recombinant; tags: Smc6-3xStrepII; Nse4-His-3HA (Qdot anti-HA label); copies: 1;1;1;1;1;1;1;1; label: Alexa594; single stranded.

Data set [4] deals with T1, Smc5/6 holocomplex. Nature of the data set: single-molecule capture on DNA curtain (TIRF); Smc5/6 preloaded on lambda dsDNA; 1 mM ATP; mean about 3.2 per punctum; Buffer R (composition not in material); dsDNA binding in 25 mM NaCl + 25 mM KCl, capture in 50 mM NaCl + 1 mM ATP; other steps 50-250 mM NaCl; pH and temperature not given in material. Particulars: protein: recombinant; tags: Smc6-3xStrepII; Nse4-His-3HA (Qdot anti-HA label); copies: 1;1;1;1;1;1;1;1; label: Alexa594; 3' overhang 9 nt on strand 2.

In data set [1], “Smc5/6 holocomplex (from UniProt Q12749 1-1114; Q08204 1-1093; Q07913 1-336; P38632 1-267; Q05541 1-303; P43124 1-402; Q03718 1-556)” gave a N, mean cluster size with a truncated Poissonian model (Smc5/6 per punctum) of 3 to 4; a fraction of puncta with both colours of 67%; a stoichiometry N (Smc5/6 per punctum) of 2 to 3. In data set [2], this molecule gave a N, mean cluster size with a truncated Poissonian model (Smc5/6 per punctum) of 2 to 3; a fraction of binding events from solution with both colours of 39%; a fraction of complexes that oligomerized on DNA (bound to previously bound Smc5/6) of 10%; a stoichiometry N (Smc5/6 complexes per punctum) of 2.

B1: capture01 ssDNA-Alexa594 (ssDNA)
DNA: ATATATCTGACGCGTGCCTGGAGACTGGGGAGTAATCCTCTTGGCGGTTAAA
modifications: Alexa594 between ...GCGGTT and AAA
In the case of B1, the binding result with Smc5/6 holocomplex [3] is listed as “binds”.

B2: capture01/capture02 dsDNA-Alexa594 (dsDNA)
DNA 1: ATATATCTGACGCGTGCCTGGAGACTGGGGAGTAATCCTCTTGGCGGTTAAA
DNA 2: TTTAACCGCCAAGAGGATTACTCCCCAGTCTCCAGGCACGCGTCAGATATATACATCCTGT
modifications: Alexa594 between ...GCGGTT and AAA of strand 1
For the molecule B2, the binding result with Smc5/6 holocomplex [4] is “binds”.
